The chains are these.
B1: GpH7-B3 variant S298_11K/GpL16-k0 (antibody, human IgG1, kappa)
heavy: not shown
light: DIVMTQSPLSLPVTPGEPASISCQASESLVHSNRNTYLHWYLQKPGQSPQLLIYKVSNRFSGVPDRFSGSGSGTDFTLKISRVEAEDVGVYYCSQNTHVPPTFGQGTKVEIERTVAAPSVFIFPPSDEQLKSGTASVVCLLNNFYPREAKVQWKVDNALQSGNSQESVTEQDSKDSTYSLSSTLTLSKADYEKHKVYACEVTHQGLSSPVTKSFNRGEC
notes: also called Ho Ab S298_11K
B2: GpH7-B3 variant Q295_03V/GpL16-k0 (antibody, human IgG1, kappa)
heavy: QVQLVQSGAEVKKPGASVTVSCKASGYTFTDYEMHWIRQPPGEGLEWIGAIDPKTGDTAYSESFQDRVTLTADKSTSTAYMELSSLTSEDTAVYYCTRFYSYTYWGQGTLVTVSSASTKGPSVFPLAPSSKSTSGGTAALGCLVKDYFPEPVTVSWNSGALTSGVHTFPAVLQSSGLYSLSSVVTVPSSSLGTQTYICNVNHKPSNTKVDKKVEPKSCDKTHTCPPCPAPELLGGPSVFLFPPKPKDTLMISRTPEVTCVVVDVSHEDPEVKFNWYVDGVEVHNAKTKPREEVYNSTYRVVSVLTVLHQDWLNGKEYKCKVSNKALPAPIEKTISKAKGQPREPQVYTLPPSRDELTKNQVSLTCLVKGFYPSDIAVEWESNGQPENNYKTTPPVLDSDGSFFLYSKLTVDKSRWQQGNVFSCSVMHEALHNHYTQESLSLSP
light: B1 light
notes: also called Ho Ab Q295_03V
B3: GpH7-B3 variant Q295_07I/GpL16-k0 (antibody, human IgG1, kappa)
heavy: not shown
light: B1 light
notes: also called Ho Ab Q295_07I
B4: GpH7-B3 variant P271_11K/GpL16-k0 (antibody, human IgG1, kappa)
heavy: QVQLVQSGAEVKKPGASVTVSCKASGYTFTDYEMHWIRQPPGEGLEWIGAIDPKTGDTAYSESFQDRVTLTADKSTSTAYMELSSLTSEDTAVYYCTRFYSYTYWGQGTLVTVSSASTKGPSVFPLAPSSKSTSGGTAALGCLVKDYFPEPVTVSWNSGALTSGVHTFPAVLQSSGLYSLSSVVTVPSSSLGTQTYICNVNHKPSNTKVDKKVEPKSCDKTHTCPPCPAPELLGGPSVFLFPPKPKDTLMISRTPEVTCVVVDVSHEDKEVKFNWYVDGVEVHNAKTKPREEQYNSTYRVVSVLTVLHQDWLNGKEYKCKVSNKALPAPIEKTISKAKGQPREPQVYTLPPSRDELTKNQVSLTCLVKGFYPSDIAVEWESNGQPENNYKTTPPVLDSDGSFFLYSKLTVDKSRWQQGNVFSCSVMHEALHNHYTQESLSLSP
light: B1 light
notes: also called Ho Ab P271_11K
B5: GpH7-B3 variant Q295_05P/GpL16-k0 (antibody, human IgG1, kappa)
heavy: not shown
light: B1 light
notes: also called Ho Ab Q295_05P
B6: GpH7-B3 variant P271_06M/GpL16-k0 (antibody, human IgG1, kappa)
heavy: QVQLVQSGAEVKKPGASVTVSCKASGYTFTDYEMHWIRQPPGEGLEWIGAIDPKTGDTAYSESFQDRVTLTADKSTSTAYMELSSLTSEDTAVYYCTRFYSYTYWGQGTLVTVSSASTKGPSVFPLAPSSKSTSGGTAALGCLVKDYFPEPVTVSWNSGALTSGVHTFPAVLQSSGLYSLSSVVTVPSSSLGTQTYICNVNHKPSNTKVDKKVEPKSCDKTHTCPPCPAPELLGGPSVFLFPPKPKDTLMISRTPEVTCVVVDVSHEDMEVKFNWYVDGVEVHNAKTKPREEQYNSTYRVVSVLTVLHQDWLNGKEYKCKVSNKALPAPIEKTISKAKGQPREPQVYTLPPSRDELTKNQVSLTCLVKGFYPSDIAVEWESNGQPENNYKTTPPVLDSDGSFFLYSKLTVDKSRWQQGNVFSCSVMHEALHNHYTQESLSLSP
light: B1 light
notes: also called Ho Ab P271_06M
B7: GpH7-B3 variant Q295_04F/GpL16-k0 (antibody, human IgG1, kappa)
heavy: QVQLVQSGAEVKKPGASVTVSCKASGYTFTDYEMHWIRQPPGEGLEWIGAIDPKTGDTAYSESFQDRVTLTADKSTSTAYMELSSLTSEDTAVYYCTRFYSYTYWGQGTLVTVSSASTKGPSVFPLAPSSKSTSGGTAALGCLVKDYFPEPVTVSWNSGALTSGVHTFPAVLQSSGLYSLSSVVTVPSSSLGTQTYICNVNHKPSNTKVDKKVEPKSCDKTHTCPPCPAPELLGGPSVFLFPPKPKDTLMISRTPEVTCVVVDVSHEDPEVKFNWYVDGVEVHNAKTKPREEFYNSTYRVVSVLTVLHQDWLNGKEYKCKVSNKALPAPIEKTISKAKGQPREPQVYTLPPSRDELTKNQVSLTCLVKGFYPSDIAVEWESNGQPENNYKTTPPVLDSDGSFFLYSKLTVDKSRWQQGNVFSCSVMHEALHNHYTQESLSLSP
light: B1 light
notes: also called Ho Ab Q295_04F
B8: GpH7-B3 variant P271_07I/GpL16-k0 (antibody, human IgG1, kappa)
heavy: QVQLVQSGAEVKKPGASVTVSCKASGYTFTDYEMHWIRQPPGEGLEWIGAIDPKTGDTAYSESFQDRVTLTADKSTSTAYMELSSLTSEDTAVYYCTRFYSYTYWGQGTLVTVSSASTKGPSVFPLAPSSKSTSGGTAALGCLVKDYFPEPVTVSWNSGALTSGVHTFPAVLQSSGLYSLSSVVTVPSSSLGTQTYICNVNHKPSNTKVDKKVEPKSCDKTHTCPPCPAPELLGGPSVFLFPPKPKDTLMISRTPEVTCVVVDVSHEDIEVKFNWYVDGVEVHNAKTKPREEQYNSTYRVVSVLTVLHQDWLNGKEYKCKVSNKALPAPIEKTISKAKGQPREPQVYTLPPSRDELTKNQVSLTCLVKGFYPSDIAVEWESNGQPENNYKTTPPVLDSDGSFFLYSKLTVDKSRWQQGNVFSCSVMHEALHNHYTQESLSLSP
light: B1 light
notes: also called Ho Ab P271_07I
B9: GpH7-B3 variant Q295_14T/GpL16-k0 (antibody, human IgG1, kappa)
heavy: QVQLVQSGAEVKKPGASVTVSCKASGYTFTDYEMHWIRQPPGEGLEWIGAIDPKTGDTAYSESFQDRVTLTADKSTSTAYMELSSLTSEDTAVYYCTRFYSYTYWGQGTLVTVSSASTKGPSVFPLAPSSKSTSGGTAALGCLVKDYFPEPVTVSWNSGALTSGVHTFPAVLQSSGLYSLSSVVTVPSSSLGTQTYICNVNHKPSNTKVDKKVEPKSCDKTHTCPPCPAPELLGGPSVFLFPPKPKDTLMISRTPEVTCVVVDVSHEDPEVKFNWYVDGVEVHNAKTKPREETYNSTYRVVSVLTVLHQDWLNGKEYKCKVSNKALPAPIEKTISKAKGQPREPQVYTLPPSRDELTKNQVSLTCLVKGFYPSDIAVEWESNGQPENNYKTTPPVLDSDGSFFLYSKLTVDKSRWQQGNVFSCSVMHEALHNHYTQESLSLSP
light: B1 light
notes: also called Ho Ab Q295_14T
B10: GpH7-B3 variant Q295_02A/GpL16-k0 (antibody, human IgG1, kappa)
heavy: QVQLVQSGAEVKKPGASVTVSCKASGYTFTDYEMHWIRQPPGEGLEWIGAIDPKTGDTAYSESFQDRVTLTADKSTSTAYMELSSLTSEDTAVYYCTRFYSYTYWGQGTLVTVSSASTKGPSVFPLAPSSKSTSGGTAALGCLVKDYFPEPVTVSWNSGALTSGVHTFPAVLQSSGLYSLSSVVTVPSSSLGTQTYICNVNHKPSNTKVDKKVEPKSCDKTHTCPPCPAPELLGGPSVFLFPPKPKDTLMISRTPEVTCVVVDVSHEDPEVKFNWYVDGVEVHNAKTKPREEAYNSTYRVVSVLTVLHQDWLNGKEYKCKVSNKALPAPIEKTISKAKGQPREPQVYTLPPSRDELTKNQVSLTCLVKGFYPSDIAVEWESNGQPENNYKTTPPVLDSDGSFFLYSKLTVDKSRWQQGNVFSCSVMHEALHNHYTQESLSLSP
light: B1 light
notes: also called Ho Ab Q295_02A
B11: GpH7-B3 variant P271_12R/GpL16-k0 (antibody, human IgG1, kappa)
heavy: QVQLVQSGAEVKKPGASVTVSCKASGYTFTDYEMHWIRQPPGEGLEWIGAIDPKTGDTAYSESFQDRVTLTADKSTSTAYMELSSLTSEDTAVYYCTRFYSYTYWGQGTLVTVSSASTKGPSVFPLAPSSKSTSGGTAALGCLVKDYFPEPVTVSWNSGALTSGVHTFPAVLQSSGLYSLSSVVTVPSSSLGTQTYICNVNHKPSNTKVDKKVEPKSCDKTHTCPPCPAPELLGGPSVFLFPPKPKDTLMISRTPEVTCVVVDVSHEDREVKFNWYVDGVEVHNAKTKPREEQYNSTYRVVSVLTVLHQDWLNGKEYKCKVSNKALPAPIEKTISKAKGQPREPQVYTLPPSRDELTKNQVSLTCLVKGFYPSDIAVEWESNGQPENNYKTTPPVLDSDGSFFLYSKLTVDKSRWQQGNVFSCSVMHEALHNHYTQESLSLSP
light: B1 light
notes: also called Ho Ab P271_12R
B12: GpH7-B3 variant P271_20W/GpL16-k0 (antibody, human IgG1, kappa)
heavy: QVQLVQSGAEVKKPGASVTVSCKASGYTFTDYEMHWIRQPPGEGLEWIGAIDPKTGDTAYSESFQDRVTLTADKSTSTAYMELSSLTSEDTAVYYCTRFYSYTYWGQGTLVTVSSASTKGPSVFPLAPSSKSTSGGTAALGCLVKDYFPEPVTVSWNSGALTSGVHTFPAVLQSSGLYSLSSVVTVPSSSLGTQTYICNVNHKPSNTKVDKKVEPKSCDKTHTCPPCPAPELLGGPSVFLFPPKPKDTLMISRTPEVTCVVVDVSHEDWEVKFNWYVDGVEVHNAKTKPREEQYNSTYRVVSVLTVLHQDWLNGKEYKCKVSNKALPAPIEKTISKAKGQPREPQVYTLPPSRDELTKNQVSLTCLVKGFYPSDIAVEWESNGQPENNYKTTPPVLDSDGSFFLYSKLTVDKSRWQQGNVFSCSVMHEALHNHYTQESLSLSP
light: B1 light
notes: also called Ho Ab P271_20W
B13: GpH7-B3 variant Q295_13S/GpL16-k0 (antibody, human IgG1, kappa)
heavy: not shown
light: B1 light
notes: also called Ho Ab Q295_13S
B14: GpH7-B3 variant P271_04F/GpL16-k0 (antibody, human IgG1, kappa)
heavy: not shown
light: B1 light
notes: also called Ho Ab P271_04F
B15: GpH7-B3 variant Q295_08L/GpL16-k0 (antibody, human IgG1, kappa)
heavy: not shown
light: B1 light
notes: also called Ho Ab Q295_08L
B16: GpH7-B3 variant P271_13S/GpL16-k0 (antibody, human IgG1, kappa)
heavy: not shown
light: B1 light
notes: also called Ho Ab P271_13S
B17: GpH7-A5/GpH7-B3 variant K334_09D/GpL16-k0 (antibody, human IgG1, kappa)
heavy 1: not shown
heavy 2: not shown
light: B1 light
notes: change in the GpH7-B3 H chain only; also called He Ab
B18: GpH7-A5/GpH7-B3 variant T335_01G/GpL16-k0 (antibody, human IgG1, kappa)
heavy 1: not shown
heavy 2: not shown
light: B1 light
notes: as for B17
B19: GpH7-A5/GpH7-B3 variant S324_10E/GpL16-k0 (antibody, human IgG1, kappa)
heavy 1: not shown
heavy 2: not shown
light: B1 light
notes: as for B17
B20: GpH7-A5/GpH7-B3 variant S324_12R/GpL16-k0 (antibody, human IgG1, kappa)
heavy 1: not shown
heavy 2: not shown
light: B1 light
notes: as for B17
B21: GpH7-A5/GpH7-B3 variant S324_19Q/GpL16-k0 (antibody, human IgG1, kappa)
heavy 1: not shown
heavy 2: not shown
light: B1 light
notes: as for B17
B22: GpH7-A5/GpH7-B3 variant S324_11K/GpL16-k0 (antibody, human IgG1, kappa)
heavy 1: not shown
heavy 2: not shown
light: B1 light
notes: as for B17
B23: GpH7-A5/GpH7-B3 variant S324_20W/GpL16-k0 (antibody, human IgG1, kappa)
heavy 1: not shown
heavy 2: not shown
light: B1 light
notes: as for B17
B24: GpH7-A5/GpH7-B3 variant S324_15Y/GpL16-k0 (antibody, human IgG1, kappa)
heavy 1: not shown
heavy 2: not shown
light: B1 light
notes: as for B17
B25: GpH7-A5/GpH7-B3 variant T335_02A/GpL16-k0 (antibody, human IgG1, kappa)
heavy 1: not shown
heavy 2: not shown
light: B1 light
notes: as for B17
B26: GpH7-A5/GpH7-B3 variant S324_14T/GpL16-k0 (antibody, human IgG1, kappa)
heavy 1: not shown
heavy 2: not shown
light: B1 light
notes: as for B17
B27: GpH7-A5/GpH7-B3 variant T335_06M/GpL16-k0 (antibody, human IgG1, kappa)
heavy 1: not shown
heavy 2: not shown
light: B1 light
notes: as for B17
B28: GpH7-A5/GpH7-B3 variant S324_08L/GpL16-k0 (antibody, human IgG1, kappa)
heavy 1: not shown
heavy 2: not shown
light: B1 light
notes: as for B17
B29: GpH7-A5/GpH7-B3 variant S324_16H/GpL16-k0 (antibody, human IgG1, kappa)
heavy 1: not shown
heavy 2: not shown
light: B1 light
notes: as for B17
B30: GpH7-A5/GpH7-B3 variant S324_18N/GpL16-k0 (antibody, human IgG1, kappa)
heavy 1: not shown
heavy 2: not shown
light: B1 light
notes: as for B17
B31: GpH7-A5/GpH7-B3 variant P329_01G/GpL16-k0 (antibody, human IgG1, kappa)
heavy 1: not shown
heavy 2: not shown
light: B1 light
notes: as for B17
B32: GpH7-A5/GpH7-B3 variant T335_11K/GpL16-k0 (antibody, human IgG1, kappa)
heavy 1: not shown
heavy 2: not shown
light: B1 light
notes: as for B17
B33: GpH7-A5/GpH7-B3 variant T335_12R/GpL16-k0 (antibody, human IgG1, kappa)
heavy 1: not shown
heavy 2: not shown
light: B1 light
notes: as for B17
B34: GpH7-A5/GpH7-B3 variant S324_09D/GpL16-k0 (antibody, human IgG1, kappa)
heavy 1: not shown
heavy 2: not shown
light: B1 light
notes: as for B17
B35: GpH7-A5/GpH7-B3 variant P329_02A/GpL16-k0 (antibody, human IgG1, kappa)
heavy 1: not shown
heavy 2: not shown
light: B1 light
notes: as for B17
B36: GpH7-A5/GpH7-B3 variant T335_05P/GpL16-k0 (antibody, human IgG1, kappa)
heavy 1: not shown
heavy 2: not shown
light: B1 light
notes: as for B17

36 molecules from patent US20150344570A1 (published 2015) can be followed below.

T2 sequence (P12314 16-292): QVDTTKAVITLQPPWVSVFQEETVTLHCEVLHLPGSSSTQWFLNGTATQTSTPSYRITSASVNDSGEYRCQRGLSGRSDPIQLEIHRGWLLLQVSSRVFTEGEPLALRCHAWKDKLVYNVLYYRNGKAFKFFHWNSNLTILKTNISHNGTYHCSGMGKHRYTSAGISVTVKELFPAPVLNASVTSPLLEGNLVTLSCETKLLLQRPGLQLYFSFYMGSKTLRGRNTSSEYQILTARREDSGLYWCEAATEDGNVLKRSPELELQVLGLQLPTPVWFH
T1 sequence (P12314 16-292): as above

The first assay has as its target T1, FcγRIa (human, UniProt P12314 16-292).
T1 construct: extracellular domain; Soluble extracellular domain expressed in FreeStyle293 cells, used as analyte in Biacore; also called FcgRI; 1a; not shown: His tag attached to the C terminus
Briefly: SPR (Biacore); Ho Ab vs HoCon Ab GpH7-B3/GpL16-k0. Here is the method:
Analysis of interaction between objective antibody and the FcγR was carried out using Biacore T100 (GE Healthcare). HBS-EP+ (GE Healthcare) was used as the running buffer, and the measurement temperature was set to 25° C. Chips produced by immobilizing the antigen peptide by the amine coupling method to a Series S Sencor Chip CM5 (GE Healthcare), or alternatively, chips produced by allowing preliminarily biotinylated antigen peptides to interact with and immobilize onto a Series S Sensor Chip SA (certified) (GE Healthcare) were used. Antibodies of interest were captured onto an antigen peptide-immobilized chip, and allowed to interact to each FcγR diluted with running buffer. To regenerate and repeatedly use the chip, the antibodies captured on the chip were washed off by reacting 10 mM glycine-HCl, pH 1.5.
In general terms: SPR reads the build-up and loss of mass on a sensor chip optically.
Consider B1, for which the Ho/Con_1a is 90.4 relative binding, control = 100. Turning to B2, the Ho/Con_1a is 102 relative binding, control = 100. Still for that read-out and setting: the same measure for B3: 101 relative binding, control = 100; for B4: 101 relative binding, control = 100.

Turning to B5, the Ho/Con_1a was 101 relative binding, control = 100. As for B6, the Ho/Con_1a is 102 relative binding, control = 100.

For B7, the Ho/Con_1a was 100 relative binding, control = 100. Take B8: the Ho/Con_1a is 102 relative binding, control = 100. For B9, the Ho/Con_1a is 102 relative binding, control = 100. Consider B10, for which the Ho/Con_1a was 104 relative binding, control = 100. Still for that read-out and setting: to B11 belongs 101 relative binding, control = 100; to B12, 102 relative binding, control = 100; to B13, 101 relative binding, control = 100. As for B14, the Ho/Con_1a was 100 relative binding, control = 100. On to B15, for which the Ho/Con_1a was 103 relative binding, control = 100. In the case of B16, the Ho/Con_1a was 101 relative binding, control = 100.

The next assay addresses T2, FcγRIa extracellular domain with C-terminal His tag (human, UniProt P12314 16-292).
T2 construct: extracellular domain; soluble analyte in Biacore; also called FcgRI; not shown: His tag at the C terminus
Briefly: SPR, binding relative to GpH7-A5/GpH7-B3/GpL16-k0 = 100.
In the case of B17, the He/Con_1a was 106 % of control. As to B18, the He/Con_1a is 104 % of control.

Take B19: the He/Con_1a was 105 % of control. For B20, the He/Con_1a is 102 % of control. With B21, the He/Con_1a was 112 % of control. In the case of B22, the He/Con_1a was 102 % of control.

As to B23, the He/Con_1a was 114 % of control.

Consider B24, for which the He/Con_1a was 114 % of control. On to B25, for which the He/Con_1a is 103 % of control. With B26, the He/Con_1a was 121 % of control. B27: the He/Con_1a is 107 % of control. Take B28: the He/Con_1a is 103 % of control. With B29, the He/Con_1a is 113 % of control. Turning to B30, the He/Con_1a is 116 % of control. Take B31: the He/Con_1a was 101 % of control. On the same count and under the same terms, to B32 belongs 111 % of control; to B33, 113 % of control; to B34, 104 % of control. Turning to B35, the He/Con_1a is 102 % of control. With B36, the He/Con_1a is 106 % of control.

In a further assay the target is T3, FcγRIIb extracellular domain with C-terminal His tag (human, UniProt P31994 43-217).
T3 construct: extracellular domain; soluble analyte in Biacore; also called FcgRIIb; not shown: His tag at the C terminus
T3 sequence (looked up): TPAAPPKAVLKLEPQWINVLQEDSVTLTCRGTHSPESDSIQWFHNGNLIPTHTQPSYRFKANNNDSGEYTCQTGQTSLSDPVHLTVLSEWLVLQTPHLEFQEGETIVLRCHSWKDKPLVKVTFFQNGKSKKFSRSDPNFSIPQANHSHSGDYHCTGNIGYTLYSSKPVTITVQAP
The description is as above.
Consider B17, for which the He/Con_2b is 94.8 % of control. Turning to B18, the He/Con_2b was 96.7 % of control. Take B19: the He/Con_2b was 77.4 % of control. On the same count and under the same terms, the same measure for B20: 63.1 % of control. With B21, the He/Con_2b is 66.8 % of control.

As to B22, the He/Con_2b is 68.6 % of control. In the case of B23, the He/Con_2b was 87.5 % of control. For the molecule B24, the He/Con_2b was 88.2 % of control.

As to B25, the He/Con_2b is 94 % of control. As to B26, the He/Con_2b is 88.4 % of control. For the molecule B27, the He/Con_2b was 99.4 % of control. In the case of B28, the He/Con_2b was 89.6 % of control.

As to B29, the He/Con_2b is 83.5 % of control. The same measure, in the same setting: the same measure for B30: 81.1 % of control. With B31, the He/Con_2b is 41.7 % of control. On the same count and under the same terms, the same measure for B32: 91 % of control; for B33: 91.9 % of control. For the molecule B34, the He/Con_2b is 85.8 % of control. Consider B35, for which the He/Con_2b was 40.5 % of control.

In the case of B36, the He/Con_2b was 99.9 % of control.
